Measured values published in US20130197191A1 (Amgen, published 2013).

T1: human FGFR1c-Fc (human, UniProt P11362 22-376)
T1 construct: also called huFGFR1c-Fc; huFGFR1c/Fc
T1 sequence: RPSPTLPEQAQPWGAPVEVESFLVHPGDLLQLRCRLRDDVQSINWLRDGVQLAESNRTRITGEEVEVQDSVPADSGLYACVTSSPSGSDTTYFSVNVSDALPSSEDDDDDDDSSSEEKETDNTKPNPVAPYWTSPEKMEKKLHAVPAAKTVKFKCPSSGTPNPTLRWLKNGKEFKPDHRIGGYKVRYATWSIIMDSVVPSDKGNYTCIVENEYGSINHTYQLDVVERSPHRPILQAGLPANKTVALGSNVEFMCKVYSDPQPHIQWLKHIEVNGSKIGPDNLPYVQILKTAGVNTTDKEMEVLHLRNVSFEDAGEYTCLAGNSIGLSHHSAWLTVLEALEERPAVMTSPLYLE

T2: recombinant human β-Klotho (human, UniProt Q86Z14 53-996, limits assumed, biotinylated in the AlphaScreen assays (site not stated))
T2 construct: also called rhβ-klotho; huβKlotho-His
T2 sequence: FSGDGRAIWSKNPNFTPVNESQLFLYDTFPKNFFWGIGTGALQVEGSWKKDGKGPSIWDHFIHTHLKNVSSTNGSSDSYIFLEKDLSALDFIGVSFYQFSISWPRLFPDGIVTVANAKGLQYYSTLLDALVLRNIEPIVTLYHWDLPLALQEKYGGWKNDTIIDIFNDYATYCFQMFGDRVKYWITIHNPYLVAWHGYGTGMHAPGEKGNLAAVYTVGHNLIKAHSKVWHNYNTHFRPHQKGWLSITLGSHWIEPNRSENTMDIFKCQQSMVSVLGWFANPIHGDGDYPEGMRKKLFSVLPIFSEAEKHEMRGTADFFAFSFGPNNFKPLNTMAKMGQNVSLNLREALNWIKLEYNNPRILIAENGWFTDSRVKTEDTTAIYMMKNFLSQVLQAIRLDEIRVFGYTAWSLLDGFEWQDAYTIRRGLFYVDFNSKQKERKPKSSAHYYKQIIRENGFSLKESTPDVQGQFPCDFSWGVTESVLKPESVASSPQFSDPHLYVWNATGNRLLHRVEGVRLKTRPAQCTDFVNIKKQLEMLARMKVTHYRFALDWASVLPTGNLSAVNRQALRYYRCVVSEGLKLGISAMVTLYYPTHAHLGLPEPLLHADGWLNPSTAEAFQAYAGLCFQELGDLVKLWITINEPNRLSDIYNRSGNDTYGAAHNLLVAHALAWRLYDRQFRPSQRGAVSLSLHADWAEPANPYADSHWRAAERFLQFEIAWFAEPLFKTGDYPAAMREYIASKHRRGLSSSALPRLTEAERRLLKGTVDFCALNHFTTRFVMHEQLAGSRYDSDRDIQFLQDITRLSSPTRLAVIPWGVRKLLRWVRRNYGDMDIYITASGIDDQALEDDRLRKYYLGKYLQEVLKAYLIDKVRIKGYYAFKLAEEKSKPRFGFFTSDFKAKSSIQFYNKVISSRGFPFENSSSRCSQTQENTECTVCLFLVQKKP

B1: FGFR1c-binding monomer M26 (designed binder)
chain: CGSSQFTCHNTNICLPRARVCDGVDDCEDNSDEAGCGDSHILPFSTPGPST
B2: FGFR1c-binding monomer M12 (designed binder)
chain: CGAGQFTCRSTNICLPLQWVCDGVDDCEDNSDEAGCGDSHILPFSTPGPST

The binders below were run against T1, human FGFR1c-Fc (assay: phage panning).

| Binder | binding result |
| --- | --- |
| CGSSQFTCHNTNICLPRAWVCDGVDDCEDNSDEKNCSAPASEPPGSL (designed binder) [FGFR1c-binding monomer M29] | binds |
| CGAGQFTCRDTNICISRAWRCDGVDDCEDNSDEADCSQDPEFHKV (designed binder, also called R1cM08) [FGFR1c-binding monomer M08] | binds |
| CLSDQFTCRSTNICLPLQWVCDGDDDCEDNSDEEDCSAPASEPPGSL (designed binder, also called R1cM31) [FGFR1c-binding monomer M31] | binds |
| CRLNEFPCGSGSCISLHWVCDSVPDCRDDSDETDCPERT (designed binder) [FGFR1c-binding monomer M33] | binds |
| CGPNQFTCRSTNICLSQTWVCDGVDDCEDGSDETNCGRPGPGATSAPAA (designed binder) [FGFR1c-binding monomer M20] | binds |
| B1 | binds |
| B2 | binds |

Target: T1, human FGFR1c-Fc
Experiment: phage panning
Remark: another data set of the same source

| Binder | binding result |
| --- | --- |
| CGANLFTCQSTNICISDAWVCDGVDDCEDNSDETTCSQDPEFHKV (designed binder, also called M23mutM10) [FGFR1c-binding monomer M23mut10] | binds |
| CGTNMFTCQRTNICISDAWVCDGVDDCEDYSDETACSQDPEFHKV (designed binder) [FGFR1c-binding monomer M23mut18] | binds |
| CGSDMFTCRSTNICISKVWVCDGVDDCEDDSDERGCSQDPEFHKV (designed binder, also called M23mutM14) [FGFR1c-binding monomer M23mut14] | binds |
| CGSNLFTCRSTNICISPAWVCDGVDDCDDDSDETGCSQDPEFHKV (designed binder, also called M23mutM16) [FGFR1c-binding monomer M23mut16] | binds |
| CGSNLFTCRRTNICISKAWVCDGVDDCEDNSDETGCSQDPEFHKV (designed binder, also called M23mutM15) [FGFR1c-binding monomer M23mut15] | binds |
| CGPNLFTCRSTNICISRAWVCDGVDDCDDESDEQGCSQDPEFHKV (designed binder) [FGFR1c-binding monomer M23mut13] | binds |
| CGANLFTCRSTNICISPTWVCDGVDDCDDNSDEIGCSQDLEFHKV (designed binder) [FGFR1c-binding monomer M23mut12] | binds |
| CGANLFTCRSTNICISPAWVCDGVDDCEDYSDEIGCSQDPEFHKV (designed binder, also called M23mutM11) [FGFR1c-binding monomer M23mut11] | binds |

These binders were tested against T2, recombinant human β-Klotho (assay: phage panning).

| Binder | binding result |
| --- | --- |
| CSAFEFHCLSGECIHSSWRCDWDLDCKDHPDEVMCALEA (designed binder) [β-Klotho-binding monomer M39] | binds |
| CVPNQFQCGSGRCLPHPLGCDGVDDCLDGSDEASCAPPT (designed binder) [β-Klotho-binding monomer M26] | binds |
| CVSDEFPCRDNNICVLLHLLCDGVDDCLDSSDETGCAKPT (designed binder) [β-Klotho-binding monomer M27] | binds |
| CSRAHFHCLSGECIHHHWRCDGGPDCKDKSDEENCPTKRPEEV (designed binder) [β-Klotho-binding monomer M41] | binds |
| CRSSEFPCHGYSTCISLSLLCDGVDDCADNSDEESCRAAGHT (designed binder) [β-Klotho-binding monomer M34] | binds |
| CSAFEFHCLSGECIHSSWRCDMDWDCKDQPDQLWCALET (designed binder) [β-Klotho-binding monomer M37] | binds |

Target: T2, recombinant human β-Klotho
Experiment: phage panning
Remark: another data set of the same source

| Binder | binding result |
| --- | --- |
| CNPLYDPHCRSYFGDGDCGPGCDLAACLWDGGDCPGVAAAELT (designed binder) [β-Klotho-binding monomer LNR_M13] | binds |
| CREYISCPNFYGDGRCQQDCNLAKCVWDGLDCADVWSEDLT (designed binder) [β-Klotho-binding monomer LNR_M04] | binds |
| CREYSMCTRFDGDGICHEQCGYPRCLWDGLDCANNFDHEVT (designed binder) [β-Klotho-binding monomer LNR_M12] | binds |
| CIAAKLCERLDGDGSCQSECGNATCGWDGMDCDEKENDELT (designed binder) [β-Klotho-binding monomer LNR_M08] | binds |
| CPAHYGTHCEERDGDGKCHQGCDFATCDWDGMDCGMDLVRELT (designed binder) [β-Klotho-binding monomer LNR_M17] | binds |
| CNPVYDPYCAAFFGDGGCGPHCGLAECVWDGMDCDHKEVRELT (designed binder) [β-Klotho-binding monomer LNR_M19] | binds |
| CMAYLLCKKYYGDGICRSECDTATCSWDGFDCPVNEIEDLT (designed binder) [β-Klotho-binding monomer LNR_M09] | binds |
| CMAYNLCTALVGDGECDQECDTPTCNWDGGDCAVKSAPDST (designed binder) [β-Klotho-binding monomer LNR_M05] | binds |
| CMAYNLCQALVGDGSCNSECDTETCGWDGMDCATVEGAEAT (designed binder) [β-Klotho-binding monomer LNR_M11] | binds |
| CPPHIEDHCERRDGDGVCQKPCDFYGCLWDGVNCDMDLVQELT (designed binder) [β-Klotho-binding monomer LNR_M02] | binds |
| CPPHIEDHCERRDGDGVCQKPCDFYGCLWDGVDCDMDLVEELT (designed binder) [β-Klotho-binding monomer LNR_M10] | binds |
| CLYQDCKEYYGDGNCSKGCNLAECLWDGGDCGTIFLADVT (designed binder) [β-Klotho-binding monomer LNR_M07] | binds |
| CMEAKSCQARDGDGDCGQGCNLAECIWDGMDCRPEWIRELT (designed binder) [β-Klotho-binding monomer LNR_M06] | binds |
| CHPLIREYCEKFFGDGGCDSGCNNSRCDWDGDDCGLIQHGDVT (designed binder) [β-Klotho-binding monomer LNR_M14] | binds |
| CNPIIQHYCETYDGDGLCESACNFYGCAWDGFDCQVISDKDST (designed binder) [β-Klotho-binding monomer LNR_M03] | binds |
| CNPPIGQYCTQLFGDGDCGPDCDLAECVWDGDDCDPVAVPDVT (designed binder) [β-Klotho-binding monomer LNR_M18] | binds |
| CNPPIGQYCTQLFGDGDCGPECNLAECVWDGDDCDPVAVPELT (designed binder) [β-Klotho-binding monomer LNR_M20] | binds |
| CHPLIREYCTHYDGDGECDKGCDSAKCKWDGDDCDMDVLAEVT (designed binder) [β-Klotho-binding monomer LNR_M21] | binds |
| CNPLYDDHCAAFFGDGGCGPECSLAECLWDGGDCEEERDADVT (designed binder) [β-Klotho-binding monomer LNR_M15] | binds |
| CIAAKLCEALDGDGVCHKECDLEECDWDGGDCQRIFLTDPT (designed binder) [β-Klotho-binding monomer LNR_M01] | binds |
| CNPKYDAHCASYFGDGECDPACSLAECVWDGDDCDPNFLTDVT (designed binder) [β-Klotho-binding monomer LNR_M16] | binds |
